In patent publication US7351555B2, “Mouse cytokine receptor Zcytor16” (ZymoGenetics, Inc., priority 2001, dated 2008):

T1: IL-TIF (Homo sapiens, UniProt Q9GZX6)
T1 sequence (Q9GZX6 34-179): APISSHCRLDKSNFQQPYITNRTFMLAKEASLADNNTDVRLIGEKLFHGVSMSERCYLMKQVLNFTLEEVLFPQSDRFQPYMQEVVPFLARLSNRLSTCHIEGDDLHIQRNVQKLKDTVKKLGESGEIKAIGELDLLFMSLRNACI


Key:
[1] = K-562 cytotoxicity assay (MTT); format: cell-based, human; details: human, K-562 cells, 100 uM
Method: The K-562 cell line (CRL-243, ATCC) has attained widespread use as a highly sensitive in vitro target for cytotoxicity assays. K-562 blasts are multipotential, hematopoietic malignant cells that spontaneously differentiate into recognizable progenitors of the erythrocytic, granulocytic and monocytic series (Lozzio, B B et al., Proc. Soc. Exp. Biol. Med. 166: 546-550, 1981).
K562 cells were plated at 5,000 cells/well in 96-well tissue culture clusters (Costar) in DMEM phenol-free growth medium (Life Technologies) supplemented with pyruvate and 10% serum (HyClone). Next day, human recombinant IL-TIF (Example 19), BSA control or retinoic acid (known to be cytotoxic to K562 cells) were added. Seventy-two hours later, the vital stain MTT (Sigma, St Louis, Mo.), a widely used indicator of mitochondrial activity and cell growth, was added to the cells at a final concentration of 0.5 mg/ml. […] is converted to a purple formazan derivative by mitochondrial dehydrogenases. Four hours later, converted MMP was solubilized by adding an equal volume of acidic, isopropanol (0.04N HCl in absolute isopropanol) to the wells. Absorbance was measured at 570 nm, with background subtraction at 650 nm. In this experimental setting, absorbance reflects cell viability. Results shown in Table 12 are expressed as % cytotoxicity.

IL-TIF [2] = biological target: T1, IL-TIF; test: IL-TIF antagonist activity in BaF3/CRF2-4/zcytor11 Alamar Blue proliferation assay; format: cell-based; set-up: the coding region. for human IL-TIF, without its stop codon; made in house; host or cells: BHK 570 cells; details: Zcytor16 at 10 μg/ml; IL-TIF at all concentrations (0.06-50 ng/ml)
From the text: Purified human IL-TIF-CEE (Example 19) was used to test for the presence of proliferation activity as described below. Purified humsn Zcytor16-Fc4 (Example 11) was used to antagonize the proliferative response of the IL-TIF in this assay as described below.
BaF3/CRF2-4/zcytor11 cells were spun down and washed in the complete media, described in Example 7A above, but without mIL-3 (hereinafter referred to as “mIL-3 free media”). The cells were spun and washed 3 times to ensure the removal of the mIL-3. Cells were then counted in a hemacytometer. Cells were plated in a 96-well format at 5000 cells per well in a volume of 100 μl per well using the mIL-3 free media.
Proliferation of the BaF3/CRF2-4/zcytor11 cells was assessed using IL-TIF-CEE protein diluted with mIL-3 free media to 50, 10, 2, 1, 0.5, 0.25, 0.13, 0.06 ng/ml concentrations. 100 μl of the diluted protein was added to the BaF3/CRF2-4/zcytor11 cells. […] Alamar Blue gives a fluourometric readout based on number of live cells, and is thus a direct measurement of cell proliferation in comparison to a negative control. […] Plates were read on the Fmax™ plate reader (Molecular Devices Sunnyvale, Calif.) using the SoftMax™ Pro program, at wavelengths 544 (Excitation) and 590 (Emmission). […] The response, as measured, was approximately 15-fold over background at the high end of 50 ng/ml down to a 2-fold induction at the low end of 0.06 ng/ml. […]

IL-TIF [3] = biological target: T1, IL-TIF; test: COS cell secretion trap binding of Zcytor16sR/Fc4 to Class II cytokines; set-up: expressed in transfected cells; host or cells: COS cells; details: 1-3 μg/ml Zcytor16sR-Fc4; COS cells transfected with IL-TIF cDNA
Method: COS cell transfections were performed as follows: A mixture of 0.5 μg DNA and 5 μl lipofectamine (Gibco BRL) in 92 ul serum free DMEM media (55 mg sodium pyruvate, 146 mg L-glutamine, 5 mg transferrin, 2.5 mg insulin, 1 μg selenium and 5 mg fetuin in 500 ml DMEM) was incubated at room temperature for 30 minutes and then 400 μl serum free DMEM media added. A 500 μl mixture was added onto COS cells plated on 12-well tissue culture plate at 1.5×10^5 COS cells/well and previously incubated for 5 hours at 37° C. An additional 500 μl 20% FBS DMEM media (100 ml FBS, 55 mg sodium pyruvate and 146 mg L-glutamine in 500 ml DMEM) was added and the plates were incubated overnight.
The secretion trap was performed as follows: Media was rinsed off cells with PBS and fixed for 15 minutes with 1.8% Formaldehyde in PBS. Cells were then washed with TNT (0.1M Tris-HCl, 0.15M NaCl, and 0.05% Tween-20 in H2O). Cells were permeated with 0.1% Triton-X in PBS for 15 minutes and washed again with TNT. […]

IL-TIF [4] = biological target: T1, IL-TIF; test: Inhibition of IL-TIF reporter activation in MES 13 cells by Zcytor16-Fc4; format: cell-based; details: for LU w/10 μg/ml zcytoR16: zcytoR16 10 μg/ml
Method: MES 13 cells (ATCC No. CRL-1927) were plated at 10,000 cells/well in 96-well tissue culture clusters (Costar) in DMEM growth medium (Life Technologies) supplemented with pyruvate and 10% serum (HyClone). Next day, the medium was switched to serum free DMEM medium by substituting 0.1% BSA (Fraction V; Sigma) for serum. This medium also contained the adenoviral construct KZ136 (below) that encodes a luciferase reporter mini-gene driven by SRE and STAT elements, at a 1000:1 multiplicity of infection (m.o.i.), i.e. 1000 adenoviral particles per cell. After allowing 24 h for the incorporation of the adenoviral construct in the cells, the media were changed and replaced with serum-free media. Human recombinant IL-TIF with or without a recombinant Zcytor16-Fc4 fusion was added at the indicated final concentration in the well (as described in Table 11, below). Dilutions of both the IL-TIF and Zcytor16-Fc4 were performed in serum-free medium. 0.1% BSA was added for a basal assay control. 4 h later, cells were lysed and luciferase activity, denoting activation of the reporter gene, was determined in the lysate using an Luciferase Assay System assay kit (Promega) and a Labsystems Luminoskan luminometer (Labsystems, Helsinki, Finland). Activity was expressed as luciferase units (LU) in the lysate.
The construction of the adenoviral KZ136 vector was as follows. The original KZ136 vector is disclosed in Poulsen, L K et al. J. Biol. Chem. 273:6228-6232, 1998. The CMV promoter/enhancer and SV40 pA sequences were removed from pACCMV.pLpA (T. C. Becker et al., […] 43:161-189, 1994.) and replaced with a linker containing Asp718/KpnI and HindIII sites (oligos ZC13252 (SEQ ID NO:26) and ZC13453 (SEQ ID NO:27)). The STAT/SRE driven luciferase reporter cassette was exised from vector KZ136 (Poulsen, L K et al., supra.).) as a Asp718/KpnI-HindIII fragment and inserted into the adapted pAC vector. Recombinant KZ136 Adenovirus was produced by transfection with JM17 Adenovirus into 293 cells as described in T. C. Becker et al. supra.). Plaque purified virus was amplified and used to infect cultured cells at 5-50 pfu/cell 12-48 hours before assay. Luciferase reporter assays were performed as described in 96 well microplates as per Poulsen, L K et al., supra.).

| response to IL-TIF in presence of Zcytor16 (IL-TIF [2]) | binding of Zcytor16sR/Fc4 to cytokine-transfected COS cells (IL-TIF [3]) | LU w/10 μg/ml zcytoR16 (IL-TIF [4]; IL-TIF 0 ng/ml (basal BSA control)) | LU w/10 μg/ml zcytoR16 (IL-TIF [4]; IL-TIF 0.03 ng/ml) | LU w/10 μg/ml zcytoR16 (IL-TIF [4]; IL-TIF 0.3 ng/ml) | LU w/10 μg/ml zcytoR16 (IL-TIF [4]; IL-TIF 3 ng/ml) | LU w/10 μg/ml zcytoR16 (IL-TIF [4]; IL-TIF 30 ng/ml) | LU w/10 μg/ml zcytoR16 (IL-TIF [4]; IL-TIF 300 ng/ml) | Molecule | cytotoxicity at 72 h, 100 µM [1] | antagonism of the response to IL-TIF (IL-TIF [4]; even at the highest dose of IL-TIF used) |
| --- | --- | --- | --- | --- | --- | --- | --- | --- | --- | --- |
|  |  |  |  |  |  |  |  | CC1=C(/C=C/C(C)=C/C=C/C(C)=C/C(=O)O)C(C)(C)CCC1 [Retinoic acid, reference compound] | 62% |  |
| brought down to background | positive binding | 104 ± 2 LU | 104 ± 4 LU | 99 ± 6 LU | 98 ± 15 LU | 110 ± 3 LU | 112 ± 30 LU | Zcytor16sR/Fc4: soluble human Zcytor16 polypeptide (residue 22 to 231 of SEQ ID NO:2) fused to a C-terminal Fc4 tag (protein) TQSTHESLKPQRVQFQSRNFHNILQWQPGRALTGNSSVYFVQYKIYGQRQWKNKEDCWGTQELSCDLTSETSDIQEPYYGRVRAASAGSYSEWSMTPRFTPWWETKIDPPVMNITQVNGSLLVILHAPNLPYRYQKEKNVSIEDYYELLYRVFIINNSLEKEQKVYEGAHRAVEIEALTPHSSYCVVAEIYQPMLDRRSQRSEERCVEIPEPRSSDKTHTCPPCPAPEAEGAPSVFLFPPKPKDTLMISRTPEVTCVVVDVSHEDPEVKFNWYVDGVEVHNAKTKPREEQYNSTYRVVSVLTVLHQDWLNGKEYKCKVSNKALPSSIEKTISKAKGQPREPQVYTLPPSRDELTKNQVSLTCLVKGFYPSDIAVEWESNGQPENNYKTTPPVLDSDGSFFLYSKLTVDKSRWQQGNVFSCSVMHEALHNHYTQKSLSLSPGK |  | effectively blocks the response to IL-TIF |
